# Measurements taken from the Immune Epitope Database (IEDB).
# Legend:
# Assay in all cases: IEDB peptide-MHC binding, purified MHC/competitive/radioactivity; filed as Kd, often an IC50 or EC50 that approximates it; ≥ and ≤ were set here for values at or beyond the usual limits of such assays
# HLA-A*26:01 = conditions: source organism: Dengue virus 3 Martinique/1243/1999
# HLA-A*30:02 = target: HLA-A*30:02
# HLA-B*15:01 = target: HLA-B*15:01
# HLA-B*35:01 = target: HLA-B*35:01
# HLA-A*01:01 = target: HLA-A*01:01
# HLA-B*15:03 = conditions: source organism: Vaccinia virus WR
# HLA-A*68:02 = target: HLA-A*68:02
# HLA-B*07:02 = target: HLA-B*07:02
# HLA-B*57:01 = conditions: source organism: Dengue virus 3 Martinique/1243/1999
# HLA-B*51:01 = target: HLA-B*51:01
# HLA-A*30:01 = conditions: source organism: Vaccinia virus WR
# HLA-A*32:01 = conditions: source organism: Vaccinia virus WR
# HLA-B*08:01 = conditions: source organism: Vaccinia virus WR
# HLA-A*02:01 = conditions: source organism: Homo sapiens
# HLA-A*02:02 = conditions: source organism: Homo sapiens
# HLA-A*02:03 = conditions: source organism: Homo sapiens
# HLA-A*23:01 = conditions: source organism: Dengue virus 4 Dominica/814669/1981
# [1] = source organism: Dengue virus 3 Martinique/1243/1999
# [2] = source organism: Dengue virus 2 Jamaica/1409/1983
# [3] = source organism: Dengue virus 3 China/80-2/1980
# [4] = source organism: Dengue virus 4 Philippines/H241/1956
# [5] = source organism: Dengue virus 2 16681-PDK53
# [6] = source organism: Vaccinia virus WR
sequence,measurement,setting,value
MVHQIFGSAY,Kd,HLA-A*26:01,0.0116 µM
same,Kd,HLA-A*30:02; [1],≥ 61.9 µM
same,Kd,HLA-B*15:01; [1],0.0372 µM
same,Kd,HLA-B*35:01; [1],0.018 µM
SMANIFRGSY,Kd,HLA-A*01:01; [2],3.25 µM
same,Kd,HLA-A*30:02; [2],0.00895 µM
same,Kd,HLA-B*15:01; [2],0.00027 µM
IQTMDGQEL,Kd,HLA-B*15:03,0.144 µM
TSVGKLVHQV,Kd,HLA-A*68:02; source organism: Dengue virus 1 Brazil/97-11/1997,0.0371 µM
RPINEKEENM,Kd,HLA-B*07:02; [3],0.222 µM
same,Kd,HLA-B*35:01; [3],1.83 µM
VRKNFTSSF,Kd,HLA-B*15:03,0.192 µM
IAIGIITLY,Kd,HLA-A*26:01,0.013 µM
same,Kd,HLA-A*30:02; [1],2.68 µM
same,Kd,HLA-B*57:01,0.00362 µM
VLMMLVAPSY,Kd,HLA-A*01:01; [4],1 µM
same,Kd,HLA-A*30:02; [4],0.0266 µM
same,Kd,HLA-B*15:01; [4],0.0101 µM
RAYMATTIL,Kd,HLA-B*15:03,0.0175 µM
QPENLEYTIV,Kd,HLA-B*07:02; [5],4.62 µM
same,Kd,HLA-B*51:01; [5],≥ 69.6 µM
FSPGTSGSPI,Kd,HLA-A*68:02; [2],0.294 µM
same,Kd,HLA-B*51:01; [2],12.8 µM
STLPETTVVRR,Kd,HLA-B*07:02; source organism: Hepatitis B virus subtype adw2,≥ 35 µM
IKVLVEHGF,Kd,HLA-A*30:01,5.93 µM
same,Kd,HLA-A*32:01,11.3 µM
same,Kd,HLA-B*08:01,≥ 77.7 µM
same,Kd,HLA-B*15:01; [6],9.69 µM
same,Kd,HLA-B*15:03,0.473 µM
VLQRNCAAYL,Kd,HLA-A*02:01,0.0957 µM
same,Kd,HLA-A*02:02,0.018 µM
same,Kd,HLA-A*02:03,0.0948 µM
same,Kd,HLA-A*68:02; source organism: Homo sapiens,≥ 60 µM
CLIPTVMAF,Kd,HLA-A*23:01,0.0819 µM
same,Kd,HLA-B*15:01; source organism: Dengue virus 4 Dominica/814669/1981,0.00064 µM
IVYSLVTTI,Kd,HLA-A*30:01,0.016 µM
same,Kd,HLA-A*32:01,0.0036 µM
same,Kd,HLA-B*08:01,13.6 µM
same,Kd,HLA-B*15:01; [6],0.542 µM
same,Kd,HLA-B*15:03,1.86 µM
